Literature values, collected in US9145575B2, “Detection of protease and protease activity using a single nanocrescent SERS probe” (The Regents of the University of California, priority 2006, dated 2015).

Target: PSA (Homo sapiens, UniProt P07288)
Details: mouse model

PSA, sequence (P07288 25-261): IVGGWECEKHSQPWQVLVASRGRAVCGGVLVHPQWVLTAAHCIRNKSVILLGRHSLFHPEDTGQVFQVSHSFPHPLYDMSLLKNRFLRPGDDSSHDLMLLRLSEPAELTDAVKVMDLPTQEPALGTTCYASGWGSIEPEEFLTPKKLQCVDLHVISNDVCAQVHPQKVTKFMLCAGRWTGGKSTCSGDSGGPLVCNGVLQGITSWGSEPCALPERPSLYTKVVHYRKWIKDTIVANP

**Q.** With “HSSKLQ-L (HSSKLQLAAAC; Synthetic protease substrate)” as the substance, how does the “cleavage by proteases in vivo” value read?
**A.** The value was “cleaved by PSA but not by any other proteases”.
